± gives the uncertainty stated by the source.
Assay: protein stability index of a GFP-peptide fusion (yeast GPS) (PSI 1-4); higher = more stable; sorted into four equal gates, so the index is relative within each strain
Settings: doa10∆
In short: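 Tiled 17-residue yeast protein peptides were fused downstream of GFP in a plasmid that also expresses Cherry, and the pooled library was carried in yeast. Mid-log cultures in leucine-free medium were sorted into four equal gates by GFP/Cherry fluorescence ratio, and plasmids from each gate were PCR-amplified and Illumina-sequenced, with reads assigned to strains by barcodes. The protein stability index for each peptide was each gate's read frequency times its gate number, summed.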

Row | Sequence | protein stability index
1 | EEASQQQQLQQNSKEKN [MED2] | 2.85 ± 0.092
2 | EEDADQEESFSLNLGIG [SRB8] | 3.2 ± 0.14

Same assay, conditions: pdr5∆

Row | Sequence | protein stability index
3 | DKQDGTAKPAFSFGAKP [YJL041W/NSP1] | 3.29 ± 0.077
4 | DKYHPGYFGKVGMRYFH [RPL28] | 2.99 ± 0.072
5 | DKYKLYPVRIPRLDTSK [YJR042W/NUP85] | 2.9 ± 0.075
6 | DLASSKEVLAKIVDLLA [RPN5] | 3.43 ± 0.24
7 | DLAVCATIIGIISTAIA [ECM29] | 2.07 ± 0.043
8 | DLEEVKRFQVLYPCYFD [SEC65] | 2.75 ± 0.088
9 | DLKESMVKGLLKSFTES [ECM29] | 3 ± 0.19
10 | DLLKNAPLFKKNSSRPM [SMD3] | 1.76 ± 0.043
11 | DLSGADIQAMCTEAGLL [RPT2] | 3.48 ± 0.13
12 | DLSISALLGDKIYNFGE [RPN9] | 3.11 ± 0.065
13 | DLSLIVKARHGGCDYIF [CYT1] | 2.94 ± 0.1
14 | DLSRNGRNGSNGNDESS [NUT1] | 3.33 ± 0.09
15 | DLYHFALNYENEAGRKL [SNF2] | 3.13 ± 0.098
16 | DMDPLAVSAASVVSMSN [SIR2] | 2.31 ± 0.12
17 | DMQSSVDTGLQPQHPHY [YLR018C/POM34] | 2.86 ± 0.039
18 | DNDSLTDLESLSSGESN [SIR4] | 3.31 ± 0.12
19 | DNEGVASKSKKKFNMGK [RPC53] | 3.12 ± 0.13
20 | DNEQNLESDFVTGASQF [PRE2] | 3.33 ± 0.098
21 | DNGESAFRTLRLARSEK [RPL13A] | 3.51 ± 0.15
22 | DNHSGDATANATANATA [DSN1] | 3.08 ± 0.064
23 | DNKMDSVKEDVKNNQEL [SMC4] | 3.02 ± 0.084
24 | DNNNGDDDDEDDDEIVM [SKP1] | 2.93 ± 0.052
25 | DNNYNTAETNNKVHETS [YDL088C/ASM4] | 2.92 ± 0.069
26 | DNPLRQIPHFNNKILEK [BRR2] | 3.1 ± 0.084
27 | DNSATSYYELETIIFDS [RRI1] | 3.17 ± 0.055

Row | Sequence | protein stability index
28 | DNSFNELTDNMSDFVPI [MCD1] | 3 ± 0.089
29 | DNVQANDPAREKFSSFI [SNF12] | 3.01 ± 0.086
30 | DNVSSQQMHEVRKELRG [RPP0] | 2.45 ± 0.18
31 | DPDLGLDLMFDEVYVQN [YJL039C/NUP192] | 3.04 ± 0.11
32 | DPFKTSSFNKRSKFLST [IRR1] | 2.46 ± 0.053
33 | DPFSDVDDDQDYVVAPG [GRR1] | 2.17 ± 0.2
34 | DPLAKVNVLLQSYFSQL [BRR2] | 1.78 ± 0.054
35 | DPNIKVNDTVKIDLASG [RPS4A] | 2.75 ± 0.063
36 | DPTLTTTTSFTTSEATA [RPN4] | 2.98 ± 0.067
37 | DQDKVNFASGDNNTASN [RPB3] | 2.36 ± 0.14
38 | DQMVVGWYHSHPGFGCW [RPN11] | 2.92 ± 0.063
39 | DRDESSPYAAMLAAQDV [RPS14A] | 3.21 ± 0.072
40 | DRFIELISDQLLEFFEL [YML103C/NUP188] | 2.42 ± 0.053
41 | DRKIEFPPPSVAARAEI [RPT6] | 2.36 ± 0.11
42 | DRKNRAPPQRPRFNREN [RPS26A] | 2.64 ± 0.082
43 | DRMDVDEDESQNIAQSS [HRT1] | 2.66 ± 0.062
44 | DRVAKVLTYPEKVTRYN [RPO31] | 2.92 ± 0.14
45 | DSALRYSILGDRFKYRS [POP4] | 3.04 ± 0.23
46 | DSDGTRLKGDIFCVGSG [PRE2] | 2.87 ± 0.057
47 | DSESDSDSETNHKSKDN [SKP1] | 3.04 ± 0.051
48 | DSFIEKIIPKDISATQL [ITC1] | 3.17 ± 0.12
49 | DSFKYEPLAPGNDNLIK [YLR335W/NUP2] | 2.75 ± 0.045
50 | DSGIGSNGSGIVAAGGG [CSL4] | 3.34 ± 0.07
51 | DSKNTPNVFDKDSYVRI [YDL088C/ASM4] | 3.11 ± 0.048
52 | DSLTQNNNNAPIIIYGT [YOR098C/NUP1] | 2.93 ± 0.041

Row | Sequence | protein stability index
53 | DSNGDFNEDQLFSLLEL [RRP46] | 2.82 ± 0.16
54 | DSNMDSISSVVSEDLLD [RPN4] | 2.31 ± 0.056
55 | DSNSEILNFLNQEDLFE [YML103C/NUP188] | 2.86 ± 0.089
56 | DSPASNEDDLTVKLTEI [RPO31] | 3.15 ± 0.068
57 | DSSSVSEDSAVFKATSS [FAS1] | 3.32 ± 0.096
58 | DSTQLLETILEEFRNLA [SSN2] | 3.18 ± 0.065
59 | DSVENSSNILEDILYYS [SRB8] | 2.74 ± 0.073
60 | DSVFSFGPKKENRKKDE [YLR335W/NUP2] | 2.86 ± 0.078
61 | DTDKLPIKNRTSKSFSK [SIN4] | 2.85 ± 0.067
62 | DTETFDTVNSALENDVA [YML103C/NUP188] | 3.63 ± 0.23
63 | DTFVHVTDLSGKETIAR [RPS14B] | 2.98 ± 0.066
64 | DTKDALSTRELAGKVGS [RPC53] | 2.27 ± 0.084
65 | DTKSVVGLVMFSQFWYW [RPN2] | 2.3 ± 0.062
66 | DTSDIIVDPTAEQLKIS [RRP46] | 2.19 ± 0.097
67 | DVAFADGGKTLRACAAN [YMR129W/POM152] | 2.6 ± 0.19
68 | DVDPEFYLKYVDIRVGK [RET1] | 2.79 ± 0.16
69 | DVEENRSEFIESLLNWI [YJR042W/NUP85] | 3.08 ± 0.085
70 | DVETVKREIQEALSEKP [RPC53] | 3.42 ± 0.12
71 | DVFTINPHQKDQLIISS [YML103C/NUP188] | 2.19 ± 0.19
72 | DVIHFEDSSILQSIVNE [PCI8] | 3.06 ± 0.076
73 | DVKLLNPIDIKRRFGEL [RPP1] | 2.7 ± 0.078
74 | DVLKDGENNINFQKASA [BRN1] | 3.4 ± 0.12
75 | DVPAYNVTSFMPFWKFF [SRB8] | 1.68 ± 0.04
76 | DVPGRELKYELIAEESE [RPB2] | 3.01 ± 0.12
77 | DVVEYLDKVINKELPIN [RPN8] | 3 ± 0.2

Row | Sequence | protein stability index
78 | DVVGTLSRNGKPVMEVT [FAS1] | 2.81 ± 0.13
79 | DWEDEEKYEDEDEEKIL [DSN1] | 2.94 ± 0.16
80 | DYGEEIKSGVAKLESLL [MTW1] | 3.11 ± 0.12
81 | DYLTLNKVVVNLNDAGL [RPN2] | 3.02 ± 0.08
82 | DYNLRIYCYFLIMKLGR [SSN8] | 1.12 ± 0.098
83 | DYSEIQRSRRKFSERRK [DSN1] | 3.35 ± 0.24
84 | DYVASLNELYQTQQDLP [NSL1] | 3.19 ± 0.052
85 | EAAKLLVDSLATFTSIE [RPN7] | 3.1 ± 0.098
86 | EAASSNKSFIVDQGQIY [ITC1] | 2.95 ± 0.068
87 | EAIETCKNFEKTQLGST [GAL11] | 3.1 ± 0.19
88 | EARAEAINLMGVKNNLL [RPO31] | 1.96 ± 0.15
89 | EARFDVLITSYEMVIRE [ISW2] | 1.49 ± 0.089
90 | EARINELLSSLEGKGSL [RPP2B] | 2.79 ± 0.099
91 | EARLRNLTYSSGLFVDV [RPB2] | 2.25 ± 0.047
92 | ECADLWPRVASNSGVVV [RPL23A] | 2.63 ± 0.1
93 | ECLPAEGHDWKAPTKLD [DIS3] | 3.21 ± 0.082
94 | EDAFNFWFDKLVTKILP [YCG1] | 2.5 ± 0.14
95 | EDCVEEFFHLQHYLDTA [QCR6] | 3.4 ± 0.081
96 | EDEDDDDDDDEDEEEEE [QCR6] | 3.5 ± 0.12
97 | EDEEDDNISSFHSAVEN [YCG1] | 3.2 ± 0.095
98 | EDGLLEGLDELPKIIQL [SOH1] | 3.3 ± 0.047
99 | EDGTIESYNQNDWKLET [SIN4] | 3.02 ± 0.2
100 | EDHIFFKYIYELILAGA [YDL116W/NUP84] | 1.98 ± 0.064

Source: the supplement of paper PMC9732359
